Reference: patent US20240166720A1 (Janssen / Centocor, published 2024)

B1: TPP000182983 (Fc fusion)
chain: HTCPPCPAPEAAGGPSVFLFPPKPKDTLMISRTPEVTCVVVSVSHEDPEVKFNWYVDGVEVHNAKTKPREEQYNSTYRVVSVLTVLHQDWLNGKEYKCKVSNKALPAPIEKTISKAKGQPREPQVYTLPPSREEMTKNQVSLTCLVKGFYPSDIAVEWESNGQPENNYKTTPPVLDSDGSFFLYSKLTVDKSRWQQGNVFSCSVMHEALHNHYTQKSLSLSPGGGGGSNPQIAAHVISEASSKTTSVLQWAEKGYYTMSNNLVTLENGKQLTVKRQGLYYIYAQVTFCSNREASSQAPFIASLCLKSPGRFERILLRAANTHSSAKPCGQQSIHLGGVFELQPGASVFVNVTDPSQVSHGTGFTSFGLLKLGGGSGGGSGGGSNPQIAAHVISEASSKTTSVLQWAEKGYYTMSNNLVTLENGKQLTVKRQGLYYIYAQVTFCSNREASSQAPFIASLCLKSPGRFERILLRAANTHSSAKPCGQQSIHLGGVFELQPGASVFVNVTDPSQVSHGTGFTSFGLLKLGGGSGGGSGGGSNPQIAAHVISEASSKTTSVLQWAEKGYYTMSNNLVTLENGKQLTVKRQGLYYIYAQVTFCSNREASSQAPFIASLCLKSPGRFERILLRAANTHSSAKPCGQQSIHLGGVFELQPGASVFVNVTDPSQVSHGTGFTSFGLLKL
notes: Single chain trimeric CD40L fused to the C-terminus of the Fc; also called C4LW16
B2: TPP000161222 (Fc fusion)
chain: IAAHVISEASSKTTSVLQWAEKGYYTMSNNLVTLENGKQLTVKRQGLYYIYAQVTFCSNREASSQAPFIASLCLKSPGRFERILLRAANTHSSAKPCGQQSIHLGGVFELQPGASVFVNVTDPSQVSHGTGFTSFGLLKLEGKSSGSGSQIAAHVISEASSKTTSVLQWAEKGYYTMSNNLVTLENGKQLTVKRQGLYYIYAQVTFCSNREASSQAPFIASLCLKSPGRFERILLRAANTHSSAKPCGQQSIHLGGVFELQPGASVFVNVTDPSQVSHGTGFTSFGLLKLEGKSSGSGSQIAAHVISEASSKTTSVLQWAEKGYYTMSNNLVTLENGKQLTVKRQGLYYIYAQVTFCSNREASSQAPFIASLCLKSPGRFERILLRAANTHSSAKPCGQQSIHLGGVFELQPGASVFVNVTDPSQVSHGTGFTSFGLLKLVERKSCVECPPCPAPPVAGPSVFLFPPKPKDTLMISRTPEVTCVVVDVSHEDPEVQFNWYVDGVEVHNAKTKPREEQFNSTFRVVSVLTVVHQDWLNGKEYKCKVSNKGLPAPIEKTISKTKGQPREPQVYTLPPSREEMTKNQVSLTCLVKGFYPSDIAVEWESNGQPENNYKTTPPMLDSDGSFFLYSKLTVDKSRWQQGNVFSCSVMHEALHNHYTQKSLSLSPGK
notes: This protein had only 38.76% monomer after protein A; also called C40W33; JNJ75347415

Experiments:
[1] = target: native CD40 receptor on HEK-Blue CD40L reporter cells (UniProt P25942 21-277, limits assumed); assay: cell-based or functional assay
Sequence of native CD40 receptor on HEK-Blue CD40L reporter cells (P25942 21-277 limits assumed): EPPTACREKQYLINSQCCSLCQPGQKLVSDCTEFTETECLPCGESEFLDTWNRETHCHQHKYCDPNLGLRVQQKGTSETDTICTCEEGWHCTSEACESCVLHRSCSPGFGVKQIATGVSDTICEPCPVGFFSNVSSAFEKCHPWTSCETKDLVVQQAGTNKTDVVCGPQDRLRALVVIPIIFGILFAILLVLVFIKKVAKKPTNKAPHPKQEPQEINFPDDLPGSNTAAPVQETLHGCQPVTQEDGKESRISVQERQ

[2] = target: T1, recombinant CD40 receptor (hu CD40) (human, UniProt P25942 21-193, limits assumed, biotinylated in the MSD assay (site not stated)); assay: MSD electrochemiluminescence plate assay: biotinylated CD40 (10 ug/ml) on streptavidin plates, three-fold dilutions of the test article, anti-human Fc detection (Example 4)
T1 construct: also called biotinylated CD40
T1 sequence (P25942 21-193 limits assumed): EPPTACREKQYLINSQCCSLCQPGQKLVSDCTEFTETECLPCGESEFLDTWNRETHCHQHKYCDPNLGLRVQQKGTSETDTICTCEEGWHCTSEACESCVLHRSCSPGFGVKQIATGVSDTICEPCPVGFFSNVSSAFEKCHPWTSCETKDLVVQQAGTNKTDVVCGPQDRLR
Method: Streptavidin sensor plates were coated with 10 ug/ml of biotinylated CD40 overnight at 4° C. The plates were washed 3× with PBS with 0.05% Tween 20 (PBST). Three-fold dilutions series of the test articles were prepared in PBS with 0.2% bovine serum albumin and 50 ul was applied to the plates for 1 hour at RT with shaking. Plates were washed 3× with PBST and anti-human Fc detection reagent at 2 ug/ml final concentration was applied for 1 hour at RT with shaking. The plates were washed 3× with PBST and 150 ul of 1× read buffer was added to the plates and data was collected on MSD instrument. Data was imported into […] Prism 8 software and analyzed and plotted based on the results three separate experiments.

Row | Binder | HEK-Blue reporter assay activity, fold against TPP000161222 [1] | EC50 (read off the curve) [2] | binding result [2]
1 | B1 | 100 fold | ~0.09 µg/mL | –
2 | B2 | – | – | binds
